Assay results: publication PMC4310248

Biological target: Exo10Rrp6 (crystal; Exo9 core + Rrp6 128-685 D238N) (Saccharomyces cerevisiae, UniProt Q12149;P38792;Q08285;P53859;P46948;Q05636;Q12277;P48240;P53256;P25359 …, D238N;Rrp6:)
Assay: X-ray crystallography

## AAAAAAAAAAAAAAAAAAAAAAAA (ssRNA) [polyA24]
  binding result: binds
